Experimental data: publication PMC10844744, “C9orf72-associated dipeptide protein repeats form A11-positive oligomers in amyotrophic lateral sclerosis and frontotemporal dementia” (The Journal of Biological Chemistry, 2024)

B1: glycine–alanine dipeptide protein repeat, 12 repeats (GA12) (peptide)
peptide: GAGAGAGAGAGAGAGAGAGAGAGA
notes: source: synthetic peptide (Scenic Biotech)
B2: glycine–arginine dipeptide protein repeat, 12 repeats (GR12) (peptide)
peptide: GRGRGRGRGRGRGRGRGRGRGRGR
notes: as for B1
B3: proline–arginine dipeptide protein repeat, 12 repeats (PR12) (peptide)
peptide: PRPRPRPRPRPRPRPRPRPRPRPR
notes: as for B1
B4: glycine–arginine dipeptide protein repeat, 6 repeats (GR6) (peptide)
peptide: GRGRGRGRGRGR
notes: as for B1
B5: proline–arginine dipeptide protein repeat, 6 repeats (PR6) (peptide)
peptide: PRPRPRPRPRPR
notes: as for B1
B6: glycine–alanine dipeptide protein repeat, 3 repeats (GA3) (peptide)
peptide: GAGAGA
notes: as for B1
B7: proline–arginine dipeptide protein repeat, 3 repeats (PR3) (peptide)
peptide: PRPRPR
notes: as for B1
B8: glycine–arginine dipeptide protein repeat, 3 repeats (GR3) (peptide)
peptide: GRGRGR
notes: as for B1
B9: glycine–alanine dipeptide protein repeat, 6 repeats (GA6) (peptide)
peptide: GAGAGAGAGAGA
notes: as for B1

Target: the molecule itself
Test: far-Western, overlay or dot blot; monomeric 12-repeat DPRs seeded with brain-derived DPRs at 1:70 M ratio (seed to monomer), orbital shaker, 37 °C, 72 h; oligomerization confirmed by dot blot
B1: binds.
B2: binds.
B3: binds.

Target: the molecule itself
Test: far-Western, overlay or dot blot; synthetic DPRs gently stirred in 1x PBS for 6 days, aliquots at days 1, 2, 4 and 6; 1 ul of 1 mg/ml dotted on nitrocellulose; oligomers read out with oligomer-specific antibody A11-19 (1:8000), fibrillar aggregates with OC (1:10,000)
B4: binds.
B5: binds.
B6: binds.
B7: binds.
B8: binds.
B9: binds.
